In PMC2063960 (The Journal of Cell Biology, 2007):

Biological target: Myc-tagged dimeric ECDT (Myc-HR-ECDT) (UniProt P12830 731-882)
Assay: co-IP

Chain of Myc-tagged dimeric ECDT (Myc-HR-ECDT) (P12830 731-882): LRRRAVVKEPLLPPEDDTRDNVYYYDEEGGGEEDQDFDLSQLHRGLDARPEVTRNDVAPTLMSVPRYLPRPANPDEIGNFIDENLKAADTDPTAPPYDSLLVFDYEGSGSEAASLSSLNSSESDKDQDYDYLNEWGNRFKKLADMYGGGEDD

B1: p120-catenin, endogenous in HEK293 cells (natural protein, human (endogenous in HEK293), UniProt O60716 1-968, looked up)
chain: MDDSEVESTASILASVKEQEAQFEKLTRALEEERRHVSAQLERVRVSPQDANPLMANGTLTRRHQNGRFVGDADLERQKFSDLKLNGPQDHSHLLYSTIPRMQEPGQIVETYTEEDPEGAMSVVSVETSDDGTTRRTETTVKKVVKTVTTRTVQPVAMGPDGLPVDASSVSNNYIQTLGRDFRKNGNGGPGPYVGQAGTATLPRNFHYPPDGYSRHYEDGYPGGSDNYGSLSRVTRIEERYRPSMEGYRAPSRQDVYGPQPQVRVGGSSVDLHRFHPEPYGLEDDQRSMGYDDLDYGMMSDYGTARRTGTPSDPRRRLRSYEDMIGEEVPSDQYYWAPLAQHERGSLASLDSLRKGGPPPPNWRQPELPEVIAMLGFRLDAVKSNAAAYLQHLCYRNDKVKTDVRKLKGIPVLVGLLDHPKKEVHLGACGALKNISFGRDQDNKIAIKNCDGVPALVRLLRKARDMDLTEVITGTLWNLSSHDSIKMEIVDHALHALTDEVIIPHSGWEREPNEDCKPRHIEWESVLTNTAGCLRNVSSERSEARRKLRECDGLVDALIFIVQAEIGQKDSDSKLVENCVCLLRNLSYQVHREIPQAERYQEAAPNVANNTGPHAASCFGAKKGKDEWFSRGKKPIEDPANDTVDFPKRTSPARGYELLFQPEVVRIYISLLKESKTPAILEASAGAIQNLCAGRWTYGRYIRSALRQEKALSAIADLLTNEHERVVKAASGALRNLAVDARNKELIGKHAIPNLVKNLPGGQQNSSWNFSEDTVISILNTINEVIAENLEAAKKLRETQGIEKLVLINKSGNRSEKEVRAAALVLQTIWGYKELRKPLEKEGWKKSDFQVNLNNASRSQSSHSYDDSTLPLIDRNQKSDKKPDREEIQMSNMGSNTKSLDNNYSTPNERGDHNRTLDRSGDLGDMEPLKGTTPLMQDEGQESLEEELDVLVLDDEGGQVSYPSMQKI
  fold affinity against the monomer (Myc-ECDT): ~10 fold
